Consider 16 molecules from patent publication US20160333095A1 (Genmab, published 2016).

Positions count from the first letter of the chain named. In names and notes the source's numbering stands.

Sequences and labels used below:
B1: IgG1-huCD3-H1-LFLEDA-LK55N (antibody, V domains shown)
VH: EVKLVESGGGLVQPGGSLRLSCAASGFTFNTYAMNWVRQAPGKGLEWVARIRSKYNNYATYYADSVKDRFTISRDDSKSSLYLQMNNLKTEDTAMYYCVRHGNFGNSYVSWFAYWGQGTLVTVSS
VL: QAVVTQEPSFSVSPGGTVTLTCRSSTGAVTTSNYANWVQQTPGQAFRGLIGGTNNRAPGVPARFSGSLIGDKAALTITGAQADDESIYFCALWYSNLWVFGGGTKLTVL
notes: IgG1 with LFLEDA; supernatant preparation; also called K55N mutant
B2: IgG1-huCD3-H1-LFLEDA-LLKNH (antibody, V domains shown)
VH: B1 VH
VL: QAVVTQEPSLSVSPGGTVTLTCRSSTGAVTTSNYANWVQQKPGQAFRGLIGGTNNRAPGVPARFSGSLIGDKAALTITGAQADDESIYFCALWYSNHWVFGGGTKLTVL
notes: IgG1 with LFLEDA; supernatant preparation; also called LKNH mutant
B3: IgG1-huCD3-H4L3-LFLEDA (antibody, V domains shown)
VH: B1 VH with Q13K, G16R, S80I, N87S, L120M
VL: B2 VL with L10F, K41T, N55K, L68I, I69L, D71N, I87D, F89Y, H97L
B4: IgG1-huCD3-H4L1-LFLEDA (antibody, V domains shown)
VH: B1 VH with Q13K, G16R, S80I, N87S, L120M
VL: not shown
B5: IgG1-huCD3-H1L1-LFLEDA (antibody, V domains shown)
VH: B1 VH
VL: not shown
notes: also called IgG1-3huCD3-H1L1-LFLEDA; wild type IgG1-huCD3-H1L1-LFLEDA
B6: bsIgG1-huCD3-H1L1×HER2-LFLEDA (bispecific antibody, V domains shown)
VH 1: B1 VH
VL 1: not shown
VH 2: QVQLVQSGAEVKKPGASVKVSCKASGYTFTNYGISWVRQAPGQGLEWMGWLSAYSGNTIYAQKLQGRVTMTTDTSTTTAYMELRSLRSDDTAVYYCARDRIVVRPDYFDYWGQGTLVTVSS
VL 2: EIVLTQSPATLSLSPGERATLSCRASQSVSSYLAWYQQKPGQAPRLLIYDASNRATGIPARFSGSGSGTDFTLTISSLEPEDFAVYYCQQRSNWPRTFGQGTKVEIK
notes: LFLEDA = L234F/L235E/D265A
B7: bsIgG1-huCD3-H1L3×HER2-LFLEDA (bispecific antibody, V domains shown)
VH 1: B1 VH
VL 1: B2 VL with L10F, K41T, N55K, L68I, I69L, D71N, I87D, F89Y, H97L
VH 2: B6 VH 2
VL 2: B6 VL 2
notes: LFLEDA = L234F/L235E/D265A
B8: bsIgG1-huCD3-H4L3×HER2-LFLEDA (bispecific antibody, V domains shown)
VH 1: B1 VH with Q13K, G16R, S80I, N87S, L120M
VL 1: B2 VL with L10F, K41T, N55K, L68I, I69L, D71N, I87D, F89Y, H97L
VH 2: B6 VH 2
VL 2: B6 VL 2
notes: LFLEDA = L234F/L235E/D265A
B9: bsIgG1-huCD3-H3L3×HER2-LFLEDA (bispecific antibody, V domains shown)
VH 1: B1 VH with Q13K, G16R, S80I, N87S
VL 1: B2 VL with L10F, K41T, N55K, L68I, I69L, D71N, I87D, F89Y, H97L
VH 2: B6 VH 2
VL 2: B6 VL 2
notes: LFLEDA = L234F/L235E/D265A
B10: bsIgG1-huCD3-H4L1×HER2-LFLEDA (bispecific antibody, V domains shown)
VH 1: B1 VH with Q13K, G16R, S80I, N87S, L120M
VL 1: not shown
VH 2: B6 VH 2
VL 2: B6 VL 2
notes: LFLEDA = L234F/L235E/D265A
B11: bsIgG1-huCD3-H1L1-LK55N/HER2-LFLEDA (bispecific antibody, V domains shown)
VH 1: B1 VH
VL 1: not shown
VH 2: B6 VH 2
VL 2: B6 VL 2
notes: LFLEDA = L234F/L235E/D265A; also called bsIgG1-huCD3-LK55N/HER2-LFLEDA
B12: IgG1-huCD3-H1-LFLEDA-LF10L (antibody, V domains shown)
VH: B1 VH
VL: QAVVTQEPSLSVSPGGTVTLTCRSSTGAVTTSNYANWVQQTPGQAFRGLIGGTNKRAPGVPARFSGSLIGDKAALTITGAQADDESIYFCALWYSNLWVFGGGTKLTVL
notes: IgG1 with LFLEDA (L234F/L235E/D265A); tested as supernatant preparation; also called IgG1-huCD3-H1L1-LF10L (with LFLEDA)
B13: IgG1-huCD3-H1-LFLEDA-LL97H (antibody, V domains shown)
VH: B1 VH
VL: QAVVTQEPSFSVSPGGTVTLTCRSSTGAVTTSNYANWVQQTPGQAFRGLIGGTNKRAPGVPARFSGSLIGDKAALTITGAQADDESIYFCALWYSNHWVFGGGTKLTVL
notes: IgG1 with LFLEDA; supernatant preparation
B14: IgG1-huCD3-H1-LFLEDA-LT41K (antibody, V domains shown)
VH: B1 VH
VL: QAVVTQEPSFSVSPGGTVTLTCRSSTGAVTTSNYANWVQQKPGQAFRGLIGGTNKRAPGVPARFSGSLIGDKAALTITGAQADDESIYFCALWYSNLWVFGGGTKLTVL
notes: IgG1 with LFLEDA; supernatant preparation; also called T41K mutant
B15: bsIgG1 huCD3-H3L1×HER2-LFLEDA (bispecific antibody, V domains shown)
VH 1: B1 VH with Q13K, G16R, S80I, N87S
VL 1: not shown
VH 2: B6 VH 2
VL 2: B6 VL 2
notes: LFLEDA = L234F/L235E/D265A; also called bsIgG1 huCD3-H3L1-LFLEDA
B16: bsIgG1 CD3×HER2 (bispecific antibody, V domains shown)
VH 1: B1 VH with V5L, G15K, R19K, K78Q, S80I, S125A
VL 1: QAVVTQESALTTSPGETVTLTCRSSTGAVTTSNYANWVQEKPDHLFTGLIGGTNKRAPGVPARFSGSLIGDKAALTITGAQTEDEAIYFCALWYSNLWVFGGGTKLTVL
VH 2: B6 VH 2
VL 2: B6 VL 2

T1 sequence (P07766 22-207 limits assumed): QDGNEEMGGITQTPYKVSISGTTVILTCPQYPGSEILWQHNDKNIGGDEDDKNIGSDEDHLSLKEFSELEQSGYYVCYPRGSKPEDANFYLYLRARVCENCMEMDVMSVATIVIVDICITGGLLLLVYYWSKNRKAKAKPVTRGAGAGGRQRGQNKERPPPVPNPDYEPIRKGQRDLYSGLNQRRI

One experiment has as its target T1, human CD3 (human, UniProt P07766 22-207).
T1 construct: also called CD3 on the human T-cell line Jurkat; CD3 on human T cells
Description: flow cytometry on Jurkat cells, FIG. 21. How it is done:
(§1) Jurkat cells (DSMZ, Brunswick, Germany) were thawed at 37° C. and washed once in 30 mL PBS and spun for 10 minutes at 300×g at 4° C. Cell pellet was resuspended in 25 mL of PBS/0.1% BSA/0.02% azide at a final concentration of 0.8×10⁶ cells/mL. 100 μL of this cell suspension (0.8×10⁵ cells/well) was transferred into polystyrene 96-well round-bottom plates (Greiner Bio-one, Alphen a/d Rijn, The Netherlands) and incubated with serial dilutions of supernatant preparations (range 3 to 10,000 ng/mL in 3-fold dilutions) in PBS/0.1% BSA/0.02% azide at 4° C. for 30 minutes. After washing three times in PBS/0.1% BSA/0.02% azide, Jurkat cells were incubated in 50 μL with secondary antibody at 4° C. for 30 min. As a secondary antibody, R-Phycoerythrin (PE)-conjugated goat-anti-human IgG F(ab′)2 (Jackson ImmunoResearch Laboratories, Inc., West Grove, Pa.) diluted 1/200 in PBS/0.1% BSA/0.02% azide, was used for all experiments. Next, Jurkat cells were washed twice in PBS/0.1% BSA/0.02% azide, re-suspended in 150 μL PBS/0.1% BSA/0.02% azide and analyzed on a FACS Cantoll (BD Biosciences). Binding curves were analyzed using nonlinear regression (sigmoidal dose-response with variable slope) using GraphPad Prism V 5.04 software (GraphPad Software, San Diego, Calif., USA).
In general terms: A flow cytometer gives signals particle by particle.
Consider B1, for which the “fold lower apparent affinity than wild type IgG1-huCD3-H1L1-LFLEDA” value stood at 5 fold.

For the molecule B2, the “fold lower apparent affinity than wild type IgG1-huCD3-H1L1-LFLEDA” value stood at 5 fold.

The next experiment deals with T2, cynomolgus CD3 (cynomolgus monkey, UniProt Q95LI5 22-198).
T2 construct: also called CD3 on the cynomolgus T-cell line HSC-F; cynomolgus CD3ε (epsilon)
T2 sequence (Q95LI5 22-198): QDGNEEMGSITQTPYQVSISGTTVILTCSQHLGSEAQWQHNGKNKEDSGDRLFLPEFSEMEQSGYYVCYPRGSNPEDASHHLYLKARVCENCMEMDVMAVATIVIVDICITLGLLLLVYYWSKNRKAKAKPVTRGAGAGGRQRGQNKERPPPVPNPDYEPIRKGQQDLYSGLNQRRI
Description: flow cytometry on HSC-F cells, FIG. 7A. How it is done: (§2) In addition to the non-activating mutations, LFLEDA, the antibody variants contained F405L or K409R mutations as described in Example 1.
(§3) Cells (1×10⁵ cells/well) were incubated in polystyrene 96-well round-bottom plates (Greiner bio-one 650101) with serial dilutions of antibody preparations (range 5 to 10,000 ng/mL in 3-fold dilutions) in 100 μL PBS/0.1% BSA/0.02% azide at 4° C. for 30 min.
(§4) After washing twice in PBS/0.1% BSA/0.02% azide, cells were incubated in 100 μL with secondary antibody at 4° C. for 30 min. As a secondary antibody, R-Phycoerythrin (PE)-conjugated goat-anti-human IgG F(ab′)2 (109-116-098, Jackson ImmunoResearch Laboratories, Inc., West Grove, Pa.) diluted 1/100 in PBS/0.1% BSA/0.02% azide, was used for all experiments. Next, cells were washed twice in PBS/0.1% BSA/0.02% azide, re-suspended in 150 μL PBS/0.1% BSA/0.02% azide and analyzed on a FACS Cantoll (BD Biosciences). Binding curves were analyzed using non-linear regression (sigmoidal dose-response with variable slope) using GraphPad Prism V 5.04 software (GraphPad Software, San Diego, Calif., USA).
For B3, the binding result is on record as “binds”.

Regarding B4, the binding result is “binds”.

As to B5, the binding result is “binds”.

A further experiment has as its target T2, cynomolgus CD3. The experiment can be described thus: flow cytometry on HSC-F cells, FIG. 7B. How it is done: as §2, §3, §4
B6: the binding result is given as “binds”.

As for B7, the binding result is given as “binds”.

As for B8, the binding result is listed as “binds”.

B9: the binding result is “binds”.

For B10, the binding result was “binds”.

In another experiment the target is T1, human CD3. The experiment can be described thus: flow cytometry on isolated human T cells, FIG. 22. How it is done: As a secondary antibody, R-Phycoerythrin (PE)-conjugated goat-anti-human IgG F(ab′)2 (Jackson ImmunoResearch Laboratories, Inc., West Grove, Pa.) diluted 1/200 in PBS/0.1% BSA/0.02% azide, was used for all experiments. […] Binding curves were analyzed using nonlinear regression (sigmoidal dose-response with variable slope) using GraphPad Prism V 5.04 software (GraphPad Software, San Diego, Calif., USA).
In general, EC50 refers to the midpoint of the concentration-response curve. On to B11, for which the EC50 was determined as 0.61 mg/L.

The target of another experiment is T1, human CD3. Description: flow cytometry on Jurkat cells, supernatant preparations, FIG. 21. How it is done: as §1
Molecule B12 displayed an EC50 of 0.169 mg/L.

As for B13, the EC50 was found to be 0.095 mg/L.

Molecule B1 gave an EC50 of 0.531 mg/L.

Regarding B2, the EC50 was found to be 0.438 mg/L.

B14: it took 0.096 mg/L to reach a half-maximal effect (EC50).

For a further experiment, the target named is T2, cynomolgus CD3. Description: flow cytometry on HSC-F cells, FIG. 2B. Here is the method:
as §2, §3, §4
Consider B15, for which the binding result is given as “binds”.

For the molecule B16, the binding result is listed as “binds”.
